Experimental data as given in patent publication US20190225691A1 (SHANGHAI HENLIUS BIOTECH, published 2019).
One block for each binder: values may come before it.

Columns and labels:
human PD-L1 ECD-His [1] = target: T1, human PD-L1 ECD-His (human, UniProt Q9NZQ7 19-238); experiment: SPR, 25 C, antibody captured by anti-human IgG Fc, hPD-L1_ECD-His analyte, 1:1 fit
T1 construct: extracellular domain; Analyte in all SPR and BLI runs; also called hPD-L1_ECD-His; hPD-L1 ECD-His; not shown: His tag
Method: Experiments were carried out at 25° C., and measurements were made with serial dilutions of hPD-L1_ECD-His from 55.4 nM to 11.1 nM passing over the captured antibodies in HBS-P+ buffer supplemented with 0.1% (w/v) BSA with a flow rate of […]. All data were analyzed with the evaluation software and curves were fit with a 1:1 Langmuir binding model. Data are representative of two independent experiments performed in duplicate.

[2] = target: T2, human PD-L1 on cells (PHA-activated human T cells); PD-L1-transfected CHO-S cells; A375 melanoma cells; … (human, UniProt Q9NZQ7 19-290); experiment: flow cytometry on PHA-activated human CD3+ T cells, FITC-labeled anti-human IgG Fcγ, MFI
T2 construct: whole, on cells; also called PD-L1 expressing T cells; PD-L1 expressing CHO-S cells
Method: Human T cells were isolated from PBMC using MagniSortTM Human T Cell Enrichment Kit (eBioscience). Isolated T cells were activated by 5 μg/mL phytohemagglutinin (PHA) for 3 days to stimulate the PD-L1 expression. Activated T cells were collected and incubated in FACS buffer (PBS with 2% FBS) with human Fc blocker (eBioscience) for 20 minutes at 4° C. Binding of anti-PD-L1 monoclonal antibody was assessed by incubating the activated T cells with the serial-diluted antibodies in FACS buffer. The cells were washed with flow buffer and the binding was detected with a FITC-labeled rabbit anti-human IgG FcγAb. Cells were also stained with mouse anti-human CD3 PE-Cy7 (eBioscience) for gating CD3-positive T cells. Flow cytometric analyses were performed using the Cytomics FC 500 (Beckman Coulter Inc.).

[3] = target: T3, recombinant human PD-L1/Fc fusion protein (human, UniProt Q9NZQ7 19-238); experiment: ELISA: human PD-L1/Fc coated (15 ng/well), serially diluted antibody, HRP-conjugated secondary antibody, TMB, A450
T3 construct: also called hPD-L1 ECD-Fc; not shown: Fc part
Method: ELISA assays were performed to assess the binding of selected antibodies to recombinant human PD-L1/Fc fusion proteins. Fifteen nanograms per well of human PD-L1/Fc proteins were coated on 96-well EIA microplate overnight at 4° C. After blocking with 5% skim milk, serially diluted antibodies were added and incubated at RT for 1 hour. The unbound antibodies were removed and wells were washed with PBST twice. The HRP-conjugated secondary antibody was added to the wells, and, following an incubation, excess secondary antibody was washed away. TMB was added to the wells, and following incubation, the reaction was stopped, and HRP activity was measured by monitoring the increase in absorbance at 450 nm.

[4] = target: T2, human PD-L1 on cells (PHA-activated …); experiment: flow cytometry blocking assay: PD-L1 expressing CHO-S cells incubated with antibody, then biotin-labeled PD-1-Fc and streptavidin-PE; MFI of bound PD-1
Method: PD-L1 expressing CHO-S cells were suspended in FACS buffer (PBS with 4% FBS). Various concentrations of tested antibodies were added to the cell suspension (3.5E5 cells/well) and incubated at 4° C. for 30 minutes. […] The cells were washed and then stained with streptavidin-PE at 4° C. for 30 minutes. Flow cytometric analyses were performed using the Cytomics FC 500 (Beckman Coulter Inc.).
Anti-PD-L1 reference antibody and Avastin were used as the positive and negative control, respectively.

[5] = target: T2, human PD-L1 on cells (PHA-activated …); experiment: flow cytometry on A375 human melanoma cells, biotin-labeled anti-human IgG Fcγ and streptavidin-PE, MFI
[6] = target: T2, human PD-L1 on cells (PHA-activated …); experiment: flow cytometry on NCI-H292 human NSCLC cells, biotin-labeled anti-human IgG Fcγ and streptavidin-PE, MFI
[7] = target: T2, human PD-L1 on cells (PHA-activated …); experiment: flow cytometry on PHA-activated human T cells, biotin-labeled anti-human IgG Fcγ and streptavidin-PE, MFI
human PD-L1 ECD-His [8] = target: T1, human PD-L1 ECD-His; experiment: BLI, ratio of KD to parental PL3#7-19
Method: (§1) Briefly, black 96-well plate was prepared with columns containing 200 μL/well of reagents required for determination of affinity. In general, Octet anti-human-Fc sensors were first placed in wells containing 1×Kinetics Buffer (PBS, 0.1% BSA, 0.02% Tween-20, pH 7.4) for 180 seconds to establish a baseline. Sensors were then transferred to wells containing […] anti-PD-L1 variants for 600 seconds to load the anti-human-Fc tips. Sensors were then placed in fresh 1×Kinetics Buffer for 180 seconds to establish a baseline. Association was then measured by incubating the sensors for 3 minutes in wells containing hPD-L1-His followed by transferring to wells containing 1×Kinetics Buffer for 10 minutes to measure dissociation. Sensors were then regenerated by 3X5 second incubations in Regeneration Buffer (10 mM Glycine, pH 1.5) followed by a 5 second incubation in 1×Kinetics Buffer each time. Regeneration was repeated before measurement of each association/dissociation cycle. […] All data were analyzed with Octet Data Analysis Software v.9.0 and representative of two independent experiments performed in duplicate.
(§2) All the data are representative of two independent experiments performed in duplicate.

human PD-L1 ECD-His [9] = target: T1, human PD-L1 ECD-His; experiment: BLI Octet RED96, antibody on AHC anti-human-Fc sensor, hPD-L1-His analyte, 1:1 fit
Method: as §1, §2

[10] = target: T2, human PD-L1 on cells (PHA-activated …); experiment: flow cytometry on PD-L1 transfected CHO-S cells, anti-human IgG Fc-FITC, MFI
Method: Binding of tested de-glycosylated variants was assessed by incubating the PD-L1 expressing CHO-S cells (2E5 cells/well) with the serial-diluted antibodies in FACS buffer (PBS with 1% FBS) at 4° C. for 30 minutes. These cells were washed with flow buffer and then stained with anti-human IgG Fc-FITC (1:500×) at 4° C. for 30 minutes to detect antibody binding on the cell surface. Flow cytometric analyses were performed using CytoFlex (Beckman Coulter Inc.).

human PD-L1 ECD-His [11] = target: T1, human PD-L1 ECD-His; experiment: BLI, ratio of KD to ref-1
Method: (§3) Briefly, black 96-well plate was prepared with columns containing 200 μL/well of reagents required for determination of affinity. In general, Octet SA sensors were first placed in wells containing 1×Kinetics Buffer (PBS, 0.1% BSA, 0.02% Tween-20, pH 7.4) for 180 seconds to establish a baseline. […] Sensors were then regenerated by 3×5 second incubations in Regeneration Buffer (10 mM Glycine, pH 1.5) followed by a 5 second incubation in 1×Kinetics Buffer each time. Regeneration was repeated before measurement of each association/dissociation cycle. Sensors were then placed in fresh 1×Kinetics Buffer for 180 seconds to establish a baseline. Association was then measured by incubating the sensors for 5 minutes in wells containing hPD-L1-His followed by transferring to wells containing 1×Kinetics Buffer for 10 minutes to measure dissociation. Kinetics (ka, kd, and […] were measured by global fitting four association/dissociation cycles of data obtained from 1:3 serial dilutions of hPD-L1-His from 38.28 nM to 1.42 nM (one association/dissociation cycle for one concentration) with a 1:1 Langmuir binding model. All data were analyzed with Octet Data Analysis Software v.9.0 and representative of two independent experiments performed in duplicate.
as §2

human PD-L1 ECD-His [12] = target: T1, human PD-L1 ECD-His; experiment: BLI Octet RED96, biotinylated antibody on SA sensor, hPD-L1-His analyte, 1:1 fit
Method: as §3, §2

[13] = target: T4, recombinant cynomolgus monkey PD-L1_ECD Fc-fusion protein (Sino Biological Inc.) (cynomolgus monkey, UniProt G7PSE7 19-238); experiment: ELISA: cynomolgus monkey PD-L1_ECD/Fc coated (9 ng/well), peroxidase-labeled goat anti-human IgG F(ab)'2, TMB, OD450
T4 construct: Bought
Method: The recombinant cynomolgus monkey PD-L1_ECD Fc-fusion proteins were purchased from Sino Biological Inc. PD-L1_ECD/Fc (9 ng per well) were immobilized onto 96-well assay plat by incubating overnight at 4° C. Nonspecific binding sites were blocked using 5% skim milk in PBS for one hour at room temperature. After washing plates three times with PBST, indicated concentrations of anti-PD-L1 antibodies and HLX01 (negative control) were incubated with the immobilized proteins for one hour at room temperature. The plates were washed three times with PBST and then incubated for one hour at room temperature with peroxidase-labeled goat anti-human IgG F(ab)′2 (Jackson ImmunoResearch Laboratories) diluted 1/10,000 in PBS. After washing, plates were developed using TMB (eBioscience). The absorbance was read at the wavelength of 450 nm by Varioskan LUX microplate reader (Thermo Scientific).
HLX01 (anti-CD20 mAb) was used as the negative control.

T1 sequence (Q9NZQ7 19-238): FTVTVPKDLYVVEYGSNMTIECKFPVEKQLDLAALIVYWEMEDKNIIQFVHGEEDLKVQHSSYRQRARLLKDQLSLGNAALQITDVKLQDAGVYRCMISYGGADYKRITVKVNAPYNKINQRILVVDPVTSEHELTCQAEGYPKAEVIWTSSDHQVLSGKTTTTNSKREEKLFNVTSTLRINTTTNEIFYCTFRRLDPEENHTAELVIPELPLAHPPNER
T2 sequence (Q9NZQ7 19-290): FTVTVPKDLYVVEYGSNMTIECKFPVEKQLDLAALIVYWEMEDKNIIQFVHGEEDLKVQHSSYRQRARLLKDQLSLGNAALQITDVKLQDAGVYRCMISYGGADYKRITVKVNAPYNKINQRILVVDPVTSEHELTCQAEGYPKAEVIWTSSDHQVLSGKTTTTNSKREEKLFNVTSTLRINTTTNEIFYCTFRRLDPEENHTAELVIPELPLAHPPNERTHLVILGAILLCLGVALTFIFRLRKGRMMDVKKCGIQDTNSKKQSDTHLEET
T4 sequence (G7PSE7 entry or part of it limits assumed): as the sequence (Q9NZQ7 19-238) above, with A33T, A34S, S62N, R68Q, Q82R, F173L, T185A, T192I, H215L counted along it
T3 sequence (Q9NZQ7 19-238 limits assumed): as the sequence (Q9NZQ7 19-238) above

B1: PL2 (full-length, N297A mutant human IgG1) (antibody, V domains shown)
VH: EVQLVQSGGGLVKPGGSLRLSCAASGFTFSSYTMNWVRQAPGKGLEWVSSISSGSDYLYYADSVKGRFTISRDNAKNSLYLQMNSLRAEDTAVYYCARNELRWYPQAGAFDIWGQGTMVTVSS
VL: QSVVTQPPSMSAAPGQNVTISCSGSSSYIESSYVSWYQQLPGTAPRLLIYDDDMRPSGIPDRFSGSKSGTSATLAITGLQTGDEADYYCEIWDSGLGGVFGGGTKLTVLS
- Kd (human PD-L1 ECD-His [1]): 8.72 nM
- koff (human PD-L1 ECD-His [1]): 0.0039 s⁻¹
- kon (human PD-L1 ECD-His [1]): 438000 M⁻¹ s⁻¹
- EC50 (read off the curve) [2]: ~5 ng/mL
- EC50 (read off the curve) [3]: ~9 ng/mL
- IC50 (read off the curve) [4]: ~50 ng/mL

B3: PL3#7-19 deglyco1 mtIgG1 (antibody, V domains shown)
VH: QVQLVQSGAEVKKPGSSVKVSCKASGGTFSSYPISWVRQAPGQGLEWMGRIIPILGIANYAQKFQGRVTITADKSTSTAYMELSSLRSEDTAVYYCARSRDGYAFGAFDVWGQGTLVTVSS
VL: QSVVTQPPPVSGAPGQRVTISCTGSSSNIGGGYDVHWYQQLPGTAPKLLIYGNSNRPSGVPDRFSGSKSGTSASLAITGLQAEDEADYYCQTYDSSLSATVVFGGGTKLTVLG
notes: N297A mutant human IgG1; also called PL3#7-19 deglycol
- Fold Difference (against parental variant) (human PD-L1 ECD-His [8]): 1.48 fold
- Kd (human PD-L1 ECD-His [9]): 0.417 nM
- koff (human PD-L1 ECD-His [9]): 0.000162 s⁻¹
- kon (human PD-L1 ECD-His [9]): 384000 M⁻¹ s⁻¹
- EC50 (read off the curve) [10]: ~200 ng/mL

Continued, values first:

- EC50 (read off the curve) [2]: ~5 ng/mL
- EC50 (read off the curve) [5]: ~2 ng/mL
- EC50 (read off the curve) [6]: ~10 ng/mL
- EC50 (read off the curve) [7]: ~4 ng/mL
- IC50 (read off the curve) [4]: ~200 ng/mL
B2: anti-PD-L1 ref-2 (IgG2) (antibody, V domains shown)
VH: EVQLVESGGGLVKPGGSLRLSCAASGFTFSSYGMSWVRQAPGKGLEWVATINSGGSNTYYPDSLKGRFTISRDNAKNSLYLQMNSLRAEDTAVYYCARHDGGAMDYWGQGTTVTVSS
VL: DIQMTQSPSSLSASVGDRVTITCRASESIYSYLAWYQQKPGKAPKLLVYNTKTLPEGVPSRFSGSGSGTDFTLTISSLQPEDFATYYCQHHYGTPPWTFGQGTRLEIK

- Improvement over ref-1 (human PD-L1 ECD-His [11]): 3.19 fold
- Kd (human PD-L1 ECD-His [12]): 0.772 nM
- koff (human PD-L1 ECD-His [12]): 0.000228 s⁻¹
- kon (human PD-L1 ECD-His [12]): 307000 M⁻¹ s⁻¹
- EC50 (read off the curve) [5]: ~1 ng/mL
- EC50 (read off the curve) [6]: ~8 ng/mL
- EC50 (read off the curve) [7]: ~4 ng/mL
- EC50 (read off the curve) [13]: ~50 ng/mL
B4: PL3#7-54 mtIgG1 (antibody, V domains shown)
VH: QVQLVQSGAEVKKPGSSVKVSCKASGGTFSSYPISWVRQAPGQGLEWMGRIIPILGIADYAQKFQGRVTITADKSTSTAYMELSSLRSEDTAVYYCARSRPGYAFGAFDIWGQGTLVTVSS
VL: QSVVTQPPPVSGAPGQRVTISCTGSSSNIGQGYDVHWYQQLPGTAPKLLIYANSNRPSGVPDRFSGSKSGTSASLAITGLQAEDEADYYCQTYDSSLSARVVFGGGTKLTVLG
modifications: Antibody was biotinylated (NHS-PEG4-biotin, sites not specified) for the Octet assay of Table 11.
notes: N297A mutant human IgG1

- Fold Difference (against parental variant) (human PD-L1 ECD-His [8]): 1.68 fold
- Kd (human PD-L1 ECD-His [9]): 0.369 nM
- koff (human PD-L1 ECD-His [9]): 0.000151 s⁻¹
- kon (human PD-L1 ECD-His [9]): 415000 M⁻¹ s⁻¹
- EC50 (read off the curve) [10]: ~200 ng/mL
B5: PL3#7-19 deglyco2 mtIgG1 (antibody, V domains shown)
VH: QVQLVQSGAEVKKPGSSVKVSCKASGGTFSSYPISWVRQAPGQGLEWMGRIIPILGIANYAQKFQGRVTITADKSTSTAYMELSSLRSEDTAVYYCARSRDGYAFGAFDVWGQGTLVTVSS
VL: QSVVTQPPPVSGAPGQRVTISCTGSSSNIGGGYDVHWYQQLPGTAPKLLIYGQSTRPSGVPDRFSGSKSGTSASLAITGLQAEDEADYYCQTYDSSLSATVVFGGGTKLTVLG
notes: N297A mutant human IgG1
